The DeepSol protein solubility set

experiment: soluble on expression in E. coli; label from the status in PepcDB or PDB records

Question: For “MGSDKIHHHHHHMDKDERLHYLDSLERLRGSKVLVYFAYTPLDDSILVPLYEQLKAIGHTEKIDLLLHSYGGAVDTPYKVVMLIREFCNEFGVIVPFVAKSAASMLVLGADEVVMGPISELGPIDPLIKHPIYKELWVPVQAIRYCIDYLQRSIESNPNPELVTGIITPMINKLDPWLIGDYEKALKASHQYAEALLSRYMLKDNPELVPVVTRALTEGYFSHGYPIGRQEAKELGLRVTEAEDELWDVIWSLYRGYEELFSTCDSGDRV”, which “soluble on expression in E. coli” value is on record?
Answer: not soluble

Question: For “GAMDENDEGVRGTCEDASLCKRFAVSIGYWHDPYIQHFVRLSKERKAPEINRGYFARVHGVSQLIKAFLRKTECHCQIVNLGAGMDTTFWRLKDEDLLPSKYFEVDFPMIVTRKLHSIKCKPPLSSPILELHSEDTLQMDGHILDSKRYAVIGADLRDLSELEEKLKKCNMNTQLPTLLIAECVLVYMTPEQSANLLKWAANSFERAMFINYEQVNEGKSLESQKERLLSNGWETASAVDMMELYNRLPRAEVSRIESLEFLDEMELLEQLMRHYCLCWATKGGNELGLKEITY”, which “soluble on expression in E. coli” value is on record?
Answer: soluble

Question: For “MSLGNYAKPIGTAPVTANPTDYSSALVCLNQYARTNRIVAPRIAIGRIADYTGKEESDGSGRKVTQGASLMAVSAFAKAGMPLVERFDTSVSEFELKYANNKLISDRPNPAPDAPADFRKILAGQVPGSDFYVIGGITELNYNIRSAGIDAYAGDKDTDGLKGNFRRRVFIMNIALDLRLVNTRTLEVVDVISYQKQVVGREVSAGVFDFLNGNLFDISAGRGALEPMQLAVRALIERATVEMAANLYGMPGPESCLRFDPFGDATVGQTGAFTPAYNNLGTNNAQTRDDPSRWNARRDPDIRDAKRGRYEGHHHHHH”, which “soluble on expression in E. coli” value is on record?
Answer: not soluble

Question: For “SNAMKELIKEHQKDINPALQLHDWVEYYRPFAANGQSANYIPALGKVNDSQLGICVLEPDGTMIHAGDWNVSFTMQSISKVISFIAACMSRGIPYVLDRVDVEPTGDAFNSIIRLEINKPGKPFNPMINAGALTIASILPGESAYEKLEFLYSVMETLIGKRPRIHEEVFRSEWETAHRNRALAYYLKETNFLEAEVEETLEVYLKQCAMESTTEDIALIGLILAHDGYHPIRHEQVIPKDVAKLAKALMLTCGMYNASGKYAAFVGVPAKSGVSGGIMALVPPSARREQPFQSGCGIGIYGPAIDEYGNSLTGGMLLKHMAQEWELSIF”, which “soluble on expression in E. coli” value is on record?
Answer: soluble

Question: For “TLAGRIVLVKIEPLSFSEFCKLKGHEVPYEKVAYARDILSPMLMEYIEKGGFPELVWENDPYKIRSYVRSIVIDRIVTRDIPQEFGIR”, which “soluble on expression in E. coli” value is on record?
Answer: not soluble

Question: Which “soluble on expression in E. coli” value does the source give for “MGSDKIHHHHHHMKMNIPVIFQFLKDLSANNNREWFNEHRSEYEVARAEFDNFLATVIARISLFDETIRGIQPKDCTYRIYRDTRFSADKTPYKIHFGGYINAKGKKSDHCGYYVHLQPDGSMLAGGSLCLPPNVLKAVRQAIYDNVEEYISIVEDPEFKKYFPVVGEDFMKTAPKGFPKDFKYIDYLKCRQFVCSYLVPDDFFTRADMMEQIEKAFRQFKRFADFINYTIDDFE” here?
Answer: not soluble

Question: With “YTIKEAERGVVTRFGKFSHLVEPGLNWKPTFIDEVKPVNVEAVRELAASGVMLTSDENVVRVEMNVQYRVTNPEKYLYSVTSPDDSLRQATDSALRGVIGKYTMDRILTEGRTVIRSDTQRELEETIRPYDMGITLLDVNFQAARPPEEVKAAFDDAIAARENEQQYIREAEAYSNEVQPRANGQAQRILEEARAYKAQTILEAQGEVARFAKLLPEYKAAPEITRERLYIETMEKVLGNTRKVLVNDKGGNLMVLPLDQMLKGGNAPAAKSDNGASNLLRLPPASSSTTSGASNTSSTSQGDIMDQRRANAQRNDYQRQGE” as the sequence, how does the “soluble on expression in E. coli” value read?
Answer: not soluble

Question: With “MWRRHYKLVPQIDTRDCGPAVLASVAKHYGSNYSIAYLRELSKTNKQGTTALGIVEAAKKLGFETRSIKADMTLFDYNDLTYPFIVHVIKGKRLQHYYVVYGSQNNQLIIGDPDPSVKVTRMSKERFQSEWTGLAIFLAPQPNYKPHKGEHHHHHH” as the sequence, how does the “soluble on expression in E. coli” value read?
Answer: soluble

Question: Which “soluble on expression in E. coli” value does the source give for “VFCAGHGVYWVAYDAGNLIKNGENTVEILTSTGEPGKKMDGRIYGTVLAAACENPKAPMVSYQLLTGNINLHGEGWSENIKEVNDRAEVNFSAGQALNNIDSANLSVVYLTGSKGLPDYIEFNGEIPGVPPQYLVEKCGENVRDIANEVSFDSSGDKGAASSYFDMEHIDVLNYLKADNSAVFVRGFDINGDGKIDDQEGEDYLHPVLAALVLTSKNTESVFPDLYPEIRVSEEELIDGKPVEISLTINNPGGICEENCTAVFLVDGNEISRVPIQMGAAGIHRSGILWSGIKGEHRLELFLD” here?
Answer: not soluble

Question: For “MNTHHHIVISIGSNYAAETNIPAAMRLLRDSYPTIRFSKPIENAPIDFPYPSGLFTNLTAHFYSSENREEVGRKLKGIELQLGRTYTKPFDGRVAIDLDLIVWNNTILKNVDYSRPYIQSGLQELRINIQTQLNMTKESRSETFFHNKPNNWNCAQAVQKGFQDLTGMTDEAIEEEYRSKGGGRAEGGLCGALYSANRILESKGLQPVSQEFQAHAGGITCRELKGELKFPCNNCVRLAEELVEQRLSESQTID”, which “soluble on expression in E. coli” value is on record?
Answer: not soluble

Question: For “SRGHDATSWINRCLDCFSEGLSFRRQSKRPKMKVHYGDKAKDYDYNARKKQQSEEIDRILDKLKKSGYNSLTTEEKKSLFDASKK”, which “soluble on expression in E. coli” value is on record?
Answer: not soluble

Question: With “MGSDKIHHHHHHQVAYFMSFAGNETFIRELVKQFGSDEVLIVYKTNVKENVLQLQQGHIIKHAIEFKKFQVTSFVKGIKLARVTLFDNYYPELSAINKTKKDYFIQMWHANGAIKAFGWEDPSTYHRSVEDQQRFQRVYDSFDQIVVGSEKMADVFQRSWHVASDKIDRIGYPRTDKYFEESWIEKARKKIQTKLPELTQKRVILYAPTYRKDVSFSLPDDWRKIKVPQDAVLIVRLHPHLANVERQIVDASPDRVIMVDHFISTQELLCVADTLITDYSSIAFDFSLLDNARSVIFFTYDLEEFERTVGIQASFKAAFLNQMVNTVEQLNDAILFGNSDKNVIHKLNQQWNTLNDGHSSARLIKQVKERCTDE” as the sequence, how does the “soluble on expression in E. coli” value read?
Answer: not soluble

Question: With “MSLTNLLQKIGDAVTVVNFSLYEGFIFDMDGTLLDTMPAHLAAWEATAKHFDFPFDAQWLYGLGGMPSAKITTHINKKLGLALDPDRVAAYKMDWFASMGLQAEVIPATYELLCQWQGKKKMAIGTGSQRDSALRLLSNAQVLDKFDAVVTASDVQQHKPHPETFLMACEQLGLTPKQCLVFEDTQLGLQAAHAGGMDCMLVTEQGLVFYPFAHEGHHHHHH” as the sequence, how does the “soluble on expression in E. coli” value read?
Answer: soluble

Question: For “MMASHSDGKNMAKRKKRTKRGRPRINGCIREPNGRISRTKMPLDPIDKLAIEMRAKRFCLTLQEAKNPLSGTYIGRLYLQGNINQDQYDAAQKYLEVRNDYLCAKTLPSAIYDKMPSSSDEAARKKWVEFATKQFLNMQEVIKETQHLYRQHNFYAALQYLVSEDQELPYLVPSLADSP”, which “soluble on expression in E. coli” value is on record?
Answer: not soluble

Question: With “MKTFPLQSLTIIEAQQKQFALVDSICRHFPGSEFLTGGDLGLTPGLNQPRVTQRVEQVLADAFHAQAAALVQGAGTGAIRAGLAALLKPGQRLLVHDAPVYPTTRVIIEQMGLTLITVDFNDLSALKQVVDEQQPDAALVQHTRQQPQDSYVLADVLATLRAAGVPALTDDNYAVMKVARIGCECGANVSTFSCFKLFGPEGVGAVVGDADVINRIRATLYSGGSQIQGAQALEVLRGLVFAPVMHAVQAGVSERLLALLNGGAVPEVKSAVIANAQSKVLIVEFHQPIAARVLEEAQKRGALPYPVGAESKYEIPPLFYRLSGTFRQANPQSEHCAIRINPNRSGEETVLRILRESIASI” as the sequence, how does the “soluble on expression in E. coli” value read?
Answer: soluble

Question: With “MAVTGQVKWFNNEKGFGFIEVPGENDVFVHFSAIETDGFKSLEEGQKVSFEIEEGNRGPQAKNVIKL” as the sequence, how does the “soluble on expression in E. coli” value read?
Answer: not soluble

Question: Which “soluble on expression in E. coli” value does the source give for “MSLDLRKINLNLLLHLDTLLNELSVSKAAEKSFMSQTAMSHILKQLRDIFDDPLFIRKPHGLQPTQKVLDLAPKIKKFLNYSNDIFEEDTFNPGNDNLFLKTASVGTGEYFILPRLCAHLAKNAPKFVLKISSLSEYLSLEYLLMSELDFAIGPGFVETGNNIIRELLFEEEAVCIMHKSHPLANQELTQDMYLQAEHVDIQFSYMGNENILYKALQGYHQRNIKVIVPNIISALEVVYHTNFITTVPRTLAVTFKDRYQIELHPFPFPKKTFLVNFYYHKRLSNHKPLQWVLDVIKKYCCVNHEGHHHHHH” here?
Answer: soluble

Question: Which “soluble on expression in E. coli” value does the source give for “MDYTNNQLHVIYGDASLGLEGPNFHYLFSYERGGLESLVVNQKEWLYRTPTPLFWRATTDNDHGNGFDVKAAQWYAADRFTTCQKIDLTVDGQLVQPLPIAPLNNRYTNHEMANQVALTYHFVTPTVPSTSVSITYTVASDGNIKIMTHFAGREGLPELPAFGLRFIMPTTATGFDYQGLSGETYPDRLAGATQGQFHVDGLPVTPYLVPQECGMHMQTSQLTVTRSTTQNNADQSKQPFSLTFSQADQPFAFSCLPYTAAELEQATHLEELPLPRRTVLSIYGAVRGVGGIDSWGADVEAKYHIPANQDLDFSFNIHFLEHHHHHH” here?
Answer: not soluble

Question: With “SLVSSMHDLLLRNVRPMAGEACDIMIRNGKITGFGKFDAEPGLPVEDGKGAIAVPGLIDAHTHLDKTTWGMPWHVNNRAAILRERIDFERENRVQIGIDPHRQSMRHAIGLAANGGTHIRSHVDIDPTHGLKLVEGIWETREKLDGIIDIEVVAFPQSGVMVMPGTVELLDEALKQGCEVLGGIDPCGIDRDPKGQLDILFQLATKHGVPIDIHLHEAADLGAFTMELIFERIRANGMQGNVAISHAFALGMNDYLRVGRLIDEIARLDVAILTTGAPSASVPSIMRLKEAGVRVGGGCDGIRDTWGPWGQPDMLDRAKIIGMKNGLRSDVELAHVLHVVSRGGADVMGIEDYGMEIGCAADFTLLTGETLAHAVVDITPRPLVVKGGRVTARNGKAIVEAP” as the sequence, how does the “soluble on expression in E. coli” value read?
Answer: soluble

Question: For “GPLGSEWYYGNVTRHQAECALNERGVEGDFLIRDSESSPSDFSVSLKASGKNKHFKVQLVDNVYCIGQRRFHTMDELVEHYKKAPIFTSEHGEKLYLVRALQ”, which “soluble on expression in E. coli” value is on record?
Answer: soluble

Question: Which “soluble on expression in E. coli” value does the source give for “MAQTQLSYKNKTYQISYEILGDLSLPQILILHGWGADKKLMKQSFCPFLKDFCQIYMDLAGFGNSSVEEILNTQDYANITELFLKQKKLNVCFFMGHSFGGKVSTLLAKEKDTLILLSSAGILAKKSLKVRFKIRIFKILKLFGLGKFYRYFASKDGANLSPIMYETFKKVVDEDFSEIFAKQKAKSLIFWGKSDEATPLYCGEKMHQFLKNSTFYPLEGDHFFFLKHSAFIAQKIKEI” here?
Answer: not soluble

Question: With “MGSDKIHHHHHHMQTHQELYLPRMGCGTWAWGNQLLWGYNESMDEQLQAVFNLCVSNGVTLFDTGDSYGTGRLNGRSELLLGQFAQEYQGVNQENICIATKLAAYPWRWTRQSMINACKSSAQRLGRNVDLVQMHWSTANYAPWQESGLLDGLADLYEQGLVKGVGLSNYGTKRLQRVHQKFAERGVPIKTLQVQYSLLSTYPVTELGLKDVCDQLGIKLIAYSPLALGILTGKYSEKGPFPRGVRGLLFRQLLPGVRSLLQCLQDVAQSRNKTMSQVALNWCIAKGTIPIPGAKSVKQAQENIGALGWQLDSGEIAELDKAAASSDKKMVQNIFQTK” as the sequence, how does the “soluble on expression in E. coli” value read?
Answer: not soluble

Question: Which “soluble on expression in E. coli” value does the source give for “MSENNKIILYQDDNEIIRVSVRFSDEDLWLTQNQLAEIYCTTQQNISQHVDNIYKDGELFTEATNKKFLLVRQEGNRQVRRNIDHYNLDMVIALGYRVQSQVATRFRRWATQRLHEYIQKGFAMDDERLKQGGNRYFRELLQRIRDIRSSERNFYQQVTDIYATATDYDPRDEMTKMFFATVQNKLHYAVHENTAAEVIYNRVDNEKPFVGMTNFKGNYVTKDDVKIAKNYLSEIELQRLNLLVSGFLDFAEFQALEMNPMTMKDWIEALDNQIIAHKRKVLIDKGRISHKQAIEKAEKEFAIYRKREMDLLESDFDKEIKRLKDKNDNNPN” here?
Answer: not soluble
